From US20210032365A1 (Chugai, published 2021)
Residue numbers refer to the chain shown, from its start.

T1: Serum-derived human C1s (human, UniProt P09871 16-688)
T1 construct: The analyte was C1s purified from serum; also called hC1s
T1 sequence: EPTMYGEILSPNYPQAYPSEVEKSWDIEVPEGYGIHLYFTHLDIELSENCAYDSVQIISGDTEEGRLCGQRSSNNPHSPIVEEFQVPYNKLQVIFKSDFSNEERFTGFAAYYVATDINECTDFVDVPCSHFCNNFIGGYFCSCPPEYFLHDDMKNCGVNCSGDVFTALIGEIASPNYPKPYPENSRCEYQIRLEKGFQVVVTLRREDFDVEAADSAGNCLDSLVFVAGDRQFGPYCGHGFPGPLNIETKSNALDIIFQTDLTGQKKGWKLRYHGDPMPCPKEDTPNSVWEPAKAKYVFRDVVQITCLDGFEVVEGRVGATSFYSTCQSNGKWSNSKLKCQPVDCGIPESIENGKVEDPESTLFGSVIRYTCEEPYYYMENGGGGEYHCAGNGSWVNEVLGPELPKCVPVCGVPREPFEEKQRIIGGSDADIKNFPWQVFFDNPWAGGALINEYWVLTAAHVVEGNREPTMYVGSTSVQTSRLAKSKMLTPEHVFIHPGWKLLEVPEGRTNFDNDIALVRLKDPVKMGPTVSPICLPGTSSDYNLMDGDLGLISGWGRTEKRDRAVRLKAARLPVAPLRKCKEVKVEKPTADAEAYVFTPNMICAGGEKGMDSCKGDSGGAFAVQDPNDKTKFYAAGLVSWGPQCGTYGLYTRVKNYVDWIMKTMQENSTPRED

T2: human C1s (human, UniProt P09871 16-688)
T2 construct: Analyte in the Biacore assays; also called hC1s; serum-derived human C1s (CompTech)
T2 sequence: T1 sequence

B1: C1_IPN92H0012-SG4GK/IPN009VK3-SK1 (antibody, V domains shown)
VH: EVMLVESGGGLVKPGGSLRLSCAASGFTFSNYAMSWVRQAPGKGLEWVATHSSGGSHTYYLDSVKGRFTISRDNSKDTLYLQMNSLRAEDTALYYCARLFTGYAMDYWGQGTLVTVSS
VL: QIVLTQSPATLSLSPGERATLSCTASSSVSSSYLHWYQQKPGKAPKLWIYSTSNLASGVPSRFSGSGSGTDYTLTISSLQPEDFATYYCHQYYRLPPITFGQGTKLEIKR
notes: Single histidine variant of the VH IPN009VH2, with SG4GK and SK1 constant regions
B2: IPN009VH2/IPN93L0023-SG136 (antibody, human IgG1, kappa, name in Kabat numbering)
heavy: EVMLVESGGGLVKPGGSLRLSCAASGFTFSNYAMSWVRQAPGKGLEWVATISSGGSHTYYLDSVKGRFTISRDNSKDTLYLQMNSLRAEDTALYYCARLFTGYAMDYWGQGTLVTVSSASTKGPSVFPLAPSSKSTSGGTAALGCLVKDYFPEPVTVSWNSGALTSGVHTFPAVLQSSGLYSLSSVVTVPSSSLGTQTYICNVNHKPSNTKVDKKVEPKSCDKTHTCPPCPAPELRRGPSVFLFPPKPKDTLMISRTPEVTCVVVDVSHEDPEVKFNWYVDGVEVHNAKTKPREEQYNSTYRVVSVLTVLHQDWLNGKEYKCKVSNKGLPSSIEKTISKAKGQPREPQVYTLPPSREEMTKNQVSLTCLVKGFYPSDIAVEWESNGQPENNYKTTPPVLDSDGSFFLYSKLTVDKSRWQQGNVFSCSVMHEALHNHYTQKSLSLSP
light: QIVLTQSPATLSLSPGERATLSCTASSSVSSSYLHWYQQKPGKAPKLWIYSTSNLASGVPSRFSGSGSGTDYTLTISSLQPEDFATYYCHQYYRHPPITFGQGTKLEIKRTVAAPSVFIFPPSDEQLKSGTASVVCLLNNFYPREAKVQWKVDNALQSGNSQESVTEQDSKDCTYSLSSTLTLSKADYEKHKVYACEVTHQGLSSPVTKSFNRGEC
notes: also called IPN009VH2/IPN93L0023 (lot PPU2043)
B3: IPN92H0281/IPN93L0024-SG136 (antibody, human IgG1, kappa, name in Kabat numbering)
heavy: B2 heavy with H57K, Y60E, K65D, G66E, G102K, Y103H
light: B2 light with H95L, P96H
notes: also called IPN92H0281/IPN93L0024 (lot PPU2047); IPN92H281/IPN93L0024-SG136
B4: IPN92H0286/IPN93L0205-SG136 (antibody, human IgG1, kappa, name in Kabat numbering)
heavy: B2 heavy with Y32K, G66H, Y103H
light: B2 light with Y33R, Y93H
notes: also called IPN92H0286/IPN93L0205 (lot PPU2048); IPN92H0286/IPN93L205-SG136
B5: IPN92H0038/IPN93L0024-SG136 (antibody, human IgG1, kappa, name in Kabat numbering)
heavy: B2 heavy with G66H, Y103H
light: B2 light with H95L, P96H
notes: also called IPN92H0038/IPN93L0024 (lot PPU2045)

Tests used:
Serum-derived human C1s [1] = biological target: T1, Serum-derived human C1s; experiment: SPR Biacore T200, 37 C, antibody captured on protein A/G, C1s at 50 nM, pH 7.4, 1.2 mM CaCl2
Description: (§1) The binding affinity of all histidine-substituted variants at pH 7.4 and pH 5.8 were determined at 37 degrees C. using Biacore T200 instrument (GE Healthcare). Recombinant Protein A/G (Pierce) was immobilized onto all flow cells of a CM4 sensor chip using amine coupling kit (GE Healthcare). Antibodies and analytes were prepared in 7(+) buffer (20 mM ACES, 150 mM NaCl, 1.2 mM CaCl2), 0.05% Tween 20, 0.005% NaN3, pH 7.4) or 5(+) buffer (20 mM ACES, 150 mM NaCl, 1.2 mM CaCl2, 0.05% Tween 20, 0.005% NaN3, pH 5.8). Each antibody was captured onto the sensor surface by protein A/G. Antibody capture levels were aimed at 200 resonance unit (RU). Serum-derived human C1s was injected at 50 nM, followed by dissociation. Sensor surface was regenerated each cycle with 10 mM Glycine-HCl pH 1.5. […] An additional dissociation phase at pH 5.8 was integrated immediately after the dissociation phase at pH 7.4. This dissociation rate in 5(+) buffer was determined by processing and fitting data using Scrubber 2.0 (BioLogic Software) curve fitting software (Table 9).

Serum-derived human C1s [2] = biological target: T1, Serum-derived human C1s; experiment: SPR Biacore T200, 37 C, added dissociation phase at pH 5.8 (1.2 mM CaCl2) straight after that at pH 7.4
Description: as §1

Serum-derived human C1s [3] = biological target: T1, Serum-derived human C1s; experiment: SPR Biacore T200, 37 C, ratio of dissociation rates pH 5.8 / pH 7.4, 1.2 mM CaCl2
Description: as §1

human C1s [4] = biological target: T2, human C1s; experiment: SPR (Biacore T200, 37C), Ab captured on protein A/G, serum C1s 12.5 and 50 nM; pH 7.4, 1.2 mM Ca
Description: as §1, with “CaCl2,” for “CaCl2),”, “CaCl2),” for “CaCl2,”, “Serum-derived human C1s was injected at 50 nM, followed by dissociation.” left out, “software.” for “software (Table 9).”

human C1s [5] = biological target: T2, human C1s; experiment: SPR; KD at pH 5.8 over KD at pH 7.4, both 1.2 mM Ca
Description: as §1, with “CaCl2,” for “CaCl2),”, “CaCl2),” for “CaCl2,”, “Serum-derived human C1s was injected at 50 nM, followed by dissociation.” left out, “software. […]” for “software (Table 9).”

human C1s [6] = biological target: T2, human C1s; experiment: SPR (Biacore T200, 37C), Ab captured on protein A/G, serum C1s 50 and 200 nM; pH 5.8, 1.2 mM Ca
Description: as §1, with “CaCl2,” for “CaCl2),”, “CaCl2),” for “CaCl2,”, “Serum-derived human C1s was injected at 50 nM, followed by dissociation.” left out, “software.” for “software (Table 9).”

human C1s [7] = biological target: T2, human C1s; experiment: SPR; koff (5.8+ of 775+): extra dissociation phase at pH 5.8 (1.2 mM Ca) right after the pH 7.4 dissociation, Scrubber fit
Description: as §1, with “CaCl2,” for “CaCl2),”, “CaCl2),” for “CaCl2,”, “Serum-derived human C1s was injected at 50 nM, followed by dissociation.” left out, “software.” for “software (Table 9).”

human C1s [8] = biological target: T2, human C1s; experiment: SPR (Biacore T200, 37C), Ab captured on protein A/G, serum C1s 200 and 800 nM; pH 5.8, 1.2 mM Ca
Description: as §1, with “CaCl2,” for “CaCl2),”, “CaCl2),” for “CaCl2,”, “Serum-derived human C1s was injected at 50 nM, followed by dissociation.” left out, “software.” for “software (Table 9).”

human C1s [9] = biological target: T2, human C1s; experiment: SPR (Biacore T200, 37C), Ab captured on protein A/G, serum C1s 200 and 800 nM; pH 5.8, 1.2 mM Ca; value marked 'Not Adopted due to low binding response at pH 5.8'
Description: as §1, with “CaCl2,” for “CaCl2),”, “CaCl2),” for “CaCl2,”, “Serum-derived human C1s was injected at 50 nM, followed by dissociation.” left out, “software.” for “software (Table 9).”

| Binder | koff (Serum-derived human C1s [1]) [s⁻¹] | kon (Serum-derived human C1s [1]) [M⁻¹ s⁻¹] | koff (Serum-derived human C1s [2]) [s⁻¹] | koff (5.8+ of 775+)/koff (7.4+) (Serum-derived human C1s [3]) | Kd (human C1s [4]) [nM] | koff (human C1s [4]) [s⁻¹] | KD (5.8+)/KD (7.4+) (human C1s [5]) | Kd (human C1s [6]) [nM] | koff (human C1s [7]) [s⁻¹] | Kd (human C1s [8]) [nM] | koff (human C1s [8]) [s⁻¹] | kon (human C1s [8]) [M⁻¹ s⁻¹] | Kd (human C1s [9]) [nM] | koff (human C1s [9]) [s⁻¹] |
| --- | --- | --- | --- | --- | --- | --- | --- | --- | --- | --- | --- | --- | --- | --- |
| B1 | 0.00192 | 183000 | 0.00109 | 0.57 |  |  |  |  |  |  |  |  |  |  |
| B2 |  |  |  |  | 2.77 | 0.000628 | 0.9 | 2.48 | 0.000691 |  |  |  |  |  |
| B3 |  |  |  |  | 2.02 | 0.000645 | 60.9 |  | 0.0247 | 123 | 0.0267 | 217000 |  |  |
| B4 |  |  |  |  | 1.43 | 0.000822 |  |  | 0.0134 |  |  |  | 8530 | 0.0237 |
| B5 |  |  |  |  | 1.2 | 0.000461 | 8.9 | 10.7 | 0.00354 |  |  |  |  |  |
